The nature of data set [1]: Temporal tracking of individual SRNP granules in vitro (burst analysis). Type of data set: physicochemical. To be noted: SRNP granules with tdPCP-mCherry, 60 minutes tracking. Here is the method:
To test whether the synthetic granules display this characteristic, we tracked the fluorescence intensity of each granule in a given field-of-view for 60 minutes. The brightness of each granule was analyzed at every time point using a customized analysis algorithm (see Supplementary Methods). The resulting signals are either decreasing or increasing in overall intensity, and dispersed within them are sharp variations in brightness, that are also either increasing or decreasing. Next, we employed a statistical threshold which flagged these signal variation events, or “signal bursts”, whose amplitude was determined to not be part of the underlying signal distribution (p-value<1e-3) (See Supplementary Methods for definitions of bursts, algorithm details, and relevant numerical controls). The events were classified as either increasing bursts (green), decreasing bursts (red), or non-classified segments (blue), which are segments where molecular movement cannot be discerned from the noise (FIG. 8A). For each detected burst, its amplitude (A intensity) and duration (A time) were measured, in addition to measuring the time between bursts and the order of their appearance. In FIG. 8B the distributions of amplitudes for all three event types were plotted, obtained from ˜156 signal traces, each gathered from a different granule composed of PCP-14×/MCP-15× and tdPCP-mCherry. We observe a bias towards negative burst or shedding events. Assuming an interpretation that fluorescent burst events correspond to insertion and shedding events of slncRNA-CP complexes into or out of the synthetic granules, the amplitude bias towards negative events is consistent with RNA degradation and lack of transcription within the in vitro suspension, leading to a net shedding of slncRNA molecules out of the granules over time.
The tracking data, (x,y,t coordinates of the bright spots centroids), together with the raw microscopy images were fed to a custom built Matlab (The Mathworks, Natick, MA) script designed to normalize the relevant spot data. Normalization was carried out as follows: for each bright spot, a 14-pixel wide sub-frame was extracted from the field of view, with the spot at its center. Each pixel in the sub-frame was classified to one of three categories according to its intensity value. […]
We assume the total fluorescence is comprised of three distinct signal processes: RNP granule fluorescence, background fluorescence and noise. We further assume that background fluorescence is slowly changing, as compared with granule fluorescence which depends on the dynamic and frequent insertion and shedding events occurring in the droplet. […] To identify such shifts in the base-line fluorescence intensity, we use a moving-average filter of 13 points (i.e., 2 minutes) to smooth the data. […]

Data set [2] is described as follows: In vitro slncRNA and slncRNA-protein granule formation (fluorescence microscopy). The format is physicochemical.
The test system of a further data set is BL21-DE3 E. coli cells. Nature of the data set: slncRNA and tdPCP-mCherry expression in bacteria (puncta, burst analysis, flow cytometry). To be noted: slncRNA co-expressed with tdPCP-mCherry, overnight induction. The format is cell-based. Background: A flow cytometer gives signals particle by particle.
[3] abbreviates: SRNP granules with tdPCP-mCherry.

B1: PCP-14×/MCP-15×: class II slncRNA with fourteen PCP binding sites spaced by hairpins that do not bind PCP (SEQ ID NO: 28) (nucleic acid)
chain: GAGAAACGTTTCGACATTATATGGAATGCGAAAGTGGAACGTAATGGACATGAAGACGATTACGCTTCACACGGAGGATGCGGGAAACATGAAGATCACCCATGTTCGCTTAACCATGGATAGGGATCACCCATGTTGCGGTGGTGCGTCAACCAGAGATTTCATATGGGAAACTCTGGGACACGCTGTATTTATACATGAGGATCACCATGTGTGCTTAAATATGGGTAAGTTGACCATTAGGCAACTGTAAGATGCTCCGGTTAATTCCAGTTTATATGGAAACGGAATTGATGTACCGTTGAGCAAGAACACGATTACGGTTCTTCGATTAGATATGGTTTAAACGACAATATATGGATTGCGTTTTGGGGCACGCCGTCTGGAGAAGACCATTAGGCTTCTTTACTGCGACCGCAATAAAAGGAGATTATATGAAATCCCTTTGCGCGCAACCGGGTAGAAGATCACCATTAGGGATCTGTAACTCACGGCGCTATTACGAGTCAATATGGTGACCGTAAAGCTAGGGCATGTGCCAGAAGAGCATTAGCCTTCTCCTTGGTGGGGAAGCGATAAGCACATTATAAGGAATGGCTTAAAGTGGTGCGGCGGGGGACTTGACCATTAGGCAAGTGTGCTAGACCCTGGTCTTTTCGAGAAAATATGGTTTCCGAAAGAACTATACGAAGTGACATGCGAGGATTACCCGCATATGGTGCAAATGGGAGAATTGGAGTAAATATGGTTACCCAATAGGCTAGAGCATGACGGCAGTGAGAATTATCCACTGGTTAGCGGGTTACCGAGATTGCACATTATATGGAATGGCAATTGATTCATGCCGGTCGTTTGTGAGGAGTACCCACAAAATGGGAGGGTGCTATATAACCAGGTTATATGCAACCGGTTAGGCCGTTGTGTTAGTTTAGTTCAGCATTAGCGAACTGTGCAAGACCCGGTGGCTAAGGAGTTTATATGGAAACCCTTAGCCCTCGAGCATGCTAACATGAGGATTACCCATGTGATGGGTTTGAAACGTGCAATTATTTGATATGGCAAAAATTGGGTAGGGCATGGCTGCAGCGTGAGAATTATCCACGCTAGGCTAGAGCATGGCGGTATTGAGTTCGGGTTTGAGATGACCATTAGGCATCTGTGCTAGAGCATGCGAAAACGACATAATATGGTATGCGTTTTGGGGTGCTAGTATACCACATGATGAGCACACATGTATGGGTGGGAGGTAGAGGGATTCTCGCGAGAAGA
With B1, the “ratio between mean granule fluorescence and mean burst amplitude, red channel (protein)” value in data set [1] is on record as “approximately equal to that of the green channel”. In addition, in data set [2] (setting [3]), the “median mCherry fluorescence of SRNP granules, brighter than PCP-4×/MCP-4× granules” value was around 3 times and the “median mCherry fluorescence of SRNP granules, brighter than PCP-8× granules” value was above 2 fold. Also, the “slncRNA and protein concentrations at which puncta like structures were detected” value in data set [2] (SRNP granules with tdPCP-mCherry, both components varied over two orders of magnitude) was at least 100 ng/µL. Besides, the “Poisson parameter λ best fit of condensate fluorescence intensity distribution” value in data set [2] (slncRNA-only condensates) is 3-5.

B2: PCP-4×/QCP-5×: class II slncRNA, four native PCP binding sites and five native QB coat protein hairpins (SEQ ID NO: 29) (nucleic acid)
chain: GAGAAACCTAGGCGATTATGACGTTATTCTACTTTGATTGTGATGCATGTCTAAGACAGCATCGCCTGCTGGTCGTGACTAAGGAGTTTATATGGAAACCCTTACGAGACAATGCTACCTTACCGGTCGGGCCCACTTGTTTTTACCCATGATGCATGTCTAAGACAGCATCGCCTGCTGGTCGTGACTAAGGAGTTTATATGGAAACCCTTAGAAACAGCCGTCGCCTTGAAGCCGAGAACAATGCATGTCTAAGACAGCATATGGATTGCCTGTCTGTTAAGGAGTTTATATGGAAACCCTTACATCAGGCTTCGCAGTATGCAACGCTTGCGATGCATGTCTAAGACAGCATTTCACCGCTTTCCTAAGTAAGGAGTTTATATGGAAACCCTTAGTACTAACTCGCAGATGCATGTCTAAGACAGCATCAGAAACGTCACGTCCTGGCTGTCGA
Turning to B2, the “puncta formation in cells” value in the data set on BL21-DE3 E. coli cells was “formation of bright puncta at the cell poles”.

B3: PCP-8×: class I slncRNA with eight PCP binding hairpins (SEQ ID NO: 27) (nucleic acid)
chain: GAGAAACGTTTCGACATTATATGGAATGCGAAACACGGAGGATGCGGGAAACATGAAGATCACCCATGTTCGCTTAACCATGGATAGGGATCACCCATGTTGCGGTGGTGCGTCAACCAGAGATTTCATATGGGAAACTCTGGGACACGCTGTATTTATACATGAGGATCACCATGTGTGCTTAAATATGGGTAATTCCAGTTTATATGGAAACGGAATTAGGCTAGAGCATGGCGGTATTGAGTTCGGGTTTGAAACGACAATATATGGATTGCGTTTTGGGGCACGCCGTCTGGAAAGGAGATTATATGAAATCCCTTTGCGCGCAACCGGGTAGATACGAGTCAATATGGTGACCGTACCTTGGTGGGGAAGCGATAAGCACATTATAAGGAATGGCTTAGTGCTAGACCCTGGTCTTTTCGAGAAAATATGGTTTCCGAAAATGGGTGGGAGGTAGAGGGATTCTCGCGAGAAGAA
Turning to B3, in data set [1], the “ratio between mean granule fluorescence and mean burst amplitude, red channel (protein)” value is around 2.

B4: PCP-4×/MCP-4×: class II slncRNA with four PCP binding sites spaced by non-PCP hairpins (SEQ ID NO: 26) (nucleic acid)
chain: GAGAAACGTTTCGACATTATATGGAATGCGAAAGTGGAACGTAATGGACATGAAGACGATTACGCTTCACACGGAGGATGCGGGAAACATGAAGATCACCCATGTTCGCTTAACCATGGATAGGGATCACCCATGTTGCGGTGGTGCGTCAACCAGAGATTTCATATGGGAAACTCTGGGACACGCTGTATTTATACATGAGGATCACCATGTGTGCTTAAATATGGGTAAGTTGACCATTAGGCAACTGTAAGATGCTCCGGTTAATTCCAGTTTATATGGAAACGGAATTGATGTACCGTTGAGCAAGAACACGATTACGGTTCTTCGATTAGATATGGTTTAAACGACAATATATGGATTGCGTTTTGGGGCACGCCGTCTGGAGAAGACCATTAGGCTTCTTTACTGCGATGGGTGGGAGGTAGAGGGATTCTCGCGAGAAGAA
For B4, the “ratio between mean granule fluorescence and mean burst amplitude, red channel (protein)” value in data set [1] is “approximately equal to that of the green channel”.

B5: PCP-3×/MCP-3×: class II slncRNA with three PCP binding sites spaced by non-PCP hairpins (SEQ ID NO: 25) (nucleic acid)
chain: GAGAAACGTTTCGACATTATATGGAATGCGAAAGTGGAACGTAATGGACATGAAGACGATTACGCTTCACACGGAGGATGCGGGAAACATGAAGATCACCCACGCTTAACCATGGATAGGGATCACCCATGTTGCGGTGGTGCGTCAACCAGAGATTTCATATGGGAAACTCTGGGACACGCTGTATTTATACATGAGGATCACCATGTGTGCTTAAATATGGGTAAGTTGACCATTAGGCAACTGTAAGATGCTCCGGTTAATTCCAGTTTATATGGAAACGGAATTGATGTACCGTTGAGCAAGAACACGATTACGGTTCTTCGATTAGATATGGGGTGGGAGGTAGAGGGATTCTCGCGAGAAGA
For B5, in data set [1], the “ratio between mean granule fluorescence and mean burst amplitude, red channel (protein)” value is “approximately equal to that of the green channel”.
